In PMC10786891, “Massively parallel profiling of RNA-targeting CRISPR-Cas13d”:
Changes are numbered by the printed parent chain. Names and notes keep the numbering of the source.

T1: EsCas13d, nuclease-dead (Eubacterium siraeum, UniProt B0MS50, R295A;H300A;R849A;H854A)
T1 sequence: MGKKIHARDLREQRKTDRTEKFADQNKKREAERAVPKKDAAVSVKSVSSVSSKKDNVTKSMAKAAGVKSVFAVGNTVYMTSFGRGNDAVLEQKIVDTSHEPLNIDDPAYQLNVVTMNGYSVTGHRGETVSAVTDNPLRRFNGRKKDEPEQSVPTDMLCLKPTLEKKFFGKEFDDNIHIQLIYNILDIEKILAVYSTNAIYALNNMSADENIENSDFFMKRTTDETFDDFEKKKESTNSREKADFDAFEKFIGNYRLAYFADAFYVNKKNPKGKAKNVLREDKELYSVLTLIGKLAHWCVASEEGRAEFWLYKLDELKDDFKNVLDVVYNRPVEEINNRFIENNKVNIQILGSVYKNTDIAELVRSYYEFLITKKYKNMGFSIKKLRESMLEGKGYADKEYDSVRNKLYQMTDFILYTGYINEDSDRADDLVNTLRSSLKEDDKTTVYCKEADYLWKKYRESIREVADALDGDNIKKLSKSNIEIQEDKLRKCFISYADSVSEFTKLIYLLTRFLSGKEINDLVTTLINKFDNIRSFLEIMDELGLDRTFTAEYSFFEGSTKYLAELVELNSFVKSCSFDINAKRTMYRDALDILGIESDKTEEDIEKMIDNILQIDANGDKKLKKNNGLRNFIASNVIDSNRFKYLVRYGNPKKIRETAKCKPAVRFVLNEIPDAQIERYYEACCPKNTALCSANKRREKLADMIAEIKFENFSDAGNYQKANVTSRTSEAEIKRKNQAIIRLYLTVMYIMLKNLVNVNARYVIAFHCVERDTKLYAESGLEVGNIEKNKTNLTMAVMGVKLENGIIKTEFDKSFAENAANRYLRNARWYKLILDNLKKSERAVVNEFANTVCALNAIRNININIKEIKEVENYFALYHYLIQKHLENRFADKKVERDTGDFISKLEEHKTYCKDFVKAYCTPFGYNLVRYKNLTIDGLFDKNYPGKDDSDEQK

B1: target 1 MT 5'PFS GUU 3'PFS CGA (mixed)
RNA 1: CACCCGUGCAAAAAUGCAGGGGUCUAAAACUGAGCGGAUAACCUCUCUAUGG
RNA 2: GGGAAUGGAUCCACAUCUACGAAUUCGUUCCAUAGAGAGGUUAUCCGCUCACGAAGAUCGGAAGAGCACACGU
B2: target 1 MT 5'PFS GUA 3'PFS UUC (mixed)
RNA 1: B1 RNA 1
RNA 2: B1 RNA 2 with U29A, C52U, G53U, A54C
B3: target 1 MT 5'PFS AUA 3'PFS ACU (mixed)
RNA 1: B1 RNA 1
RNA 2: B1 RNA 2 with G27A, U29A, C52A, G53C, A54U
B4: target 1 MT 5'PFS GUC 3'PFS AGA (mixed)
RNA 1: B1 RNA 1
RNA 2: B1 RNA 2 with U29C, C52A
B5: target 1 MT 5'PFS UUA 3'PFS UAG (mixed)
RNA 1: B1 RNA 1
RNA 2: B1 RNA 2 with G27U, U29A, C52U, G53A, A54G
B6: target 1 MT 5'PFS GUA 3'PFS UUG (mixed)
RNA 1: B1 RNA 1
RNA 2: B1 RNA 2 with U29A, C52U, G53U, A54G
B7: target 1 MT 5'PFS GGU 3'PFS CCU (mixed)
RNA 1: B1 RNA 1
RNA 2: B1 RNA 2 with U28G, G53C, A54U
B8: target 1 MT 5'PFS GAC 3'PFS UAC (mixed)
RNA 1: B1 RNA 1
RNA 2: B1 RNA 2 with U28A, U29C, C52U, G53A, A54C
B9: target 1 MT 5'PFS GUA 3'PFS UUA (mixed)
RNA 1: B1 RNA 1
RNA 2: B1 RNA 2 with U29A, C52U, G53U
B10: target 1 MT 5'PFS GGC 3'PFS CCU (mixed)
RNA 1: B1 RNA 1
RNA 2: B1 RNA 2 with U28G, U29C, G53C, A54U
B11: target 1 MT 5'PFS GAC 3'PFS UAA (mixed)
RNA 1: B1 RNA 1
RNA 2: B1 RNA 2 with U28A, U29C, C52U, G53A
B12: target 1 MT 5'PFS UUG 3'PFS CUU (mixed)
RNA 1: B1 RNA 1
RNA 2: B1 RNA 2 with G27U, U29G, G53U, A54U
B13: target 1 MT 5'PFS GUU 3'PFS CGU (mixed)
RNA 1: B1 RNA 1
RNA 2: B1 RNA 2 with A54U
B14: target 1 MT 5'PFS CCG 3'PFS UCC (mixed)
RNA 1: B1 RNA 1
RNA 2: B1 RNA 2 with G27C, U28C, U29G, C52U, G53C, A54C
B15: target 1 insA 3' of 8,insA 3' of 6 (mixed)
RNA 1: B1 RNA 1
RNA 2: GGGAAUGGAUCCACAUCUACGAAUUCGUACCAUAGAGAGGUUAUACCAGCUCACCGAGAUCGGAAGAGCACACGU
B16: target 1 MT 5'PFS GUC 3'PFS AGG (mixed)
RNA 1: B1 RNA 1
RNA 2: B1 RNA 2 with U29C, C52A, A54G
B17: target 1 MT 5'PFS GUC 3'PFS AGC (mixed)
RNA 1: B1 RNA 1
RNA 2: B1 RNA 2 with U29C, C52A, A54C
B18: target 1 MT 5'PFS UUA 3'PFS UAC (mixed)
RNA 1: B1 RNA 1
RNA 2: B1 RNA 2 with G27U, U29A, C52U, G53A, A54C
B19: target 1 MT 5'PFS GCG 3'PFS CCU (mixed)
RNA 1: B1 RNA 1
RNA 2: B1 RNA 2 with U28C, U29G, G53C, A54U
B20: target 1 MT 5'PFS GGG 3'PFS ACU (mixed)
RNA 1: B1 RNA 1
RNA 2: B1 RNA 2 with U28G, U29G, C52A, G53C, A54U
B21: target 1 MT 5'PFS GAC 3'PFS UAU (mixed)
RNA 1: B1 RNA 1
RNA 2: B1 RNA 2 with U28A, U29C, C52U, G53A, A54U
B22: target 1 MT 5'PFS UUG 3'PFS CUG (mixed)
RNA 1: B1 RNA 1
RNA 2: B1 RNA 2 with G27U, U29G, G53U, A54G
B23: target 1 MT 5'PFS UAG 3'PFS GAG (mixed)
RNA 1: B1 RNA 1
RNA 2: B1 RNA 2 with G27U, U28A, U29G, C52G, G53A, A54G
B24: target 1 MT 5'PFS UUA 3'PFS UAA (mixed)
RNA 1: B1 RNA 1
RNA 2: B1 RNA 2 with G27U, U29A, C52U, G53A
B25: target 1 MT 5'PFS UUG 3'PFS CUA (mixed)
RNA 1: B1 RNA 1
RNA 2: B1 RNA 2 with G27U, U29G, G53U
B26: target 1 MT 5'PFS UUA 3'PFS CUG (mixed)
RNA 1: B1 RNA 1
RNA 2: B1 RNA 2 with G27U, U29A, G53U, A54G
B27: target 1 MT 5'PFS UUA 3'PFS CUC (mixed)
RNA 1: B1 RNA 1
RNA 2: B1 RNA 2 with G27U, U29A, G53U, A54C
B28: target 1 MT 5'PFS UUA 3'PFS CUA (mixed)
RNA 1: B1 RNA 1
RNA 2: B1 RNA 2 with G27U, U29A, G53U
B29: target 1 MT 5'PFS CCA 3'PFS CGG (mixed)
RNA 1: B1 RNA 1
RNA 2: B1 RNA 2 with G27C, U28C, U29A, A54G
B30: target 1 G5U,G13C (mixed)
RNA 1: B1 RNA 1
RNA 2: B1 RNA 2 with U29A, G39C, G47U, G53C, A54G
B31: target 1 MT 5'PFS CAU 3'PFS CUA (mixed)
RNA 1: B1 RNA 1
RNA 2: B1 RNA 2 with G27C, U28A, G53U
B32: target 1 MT 5'PFS GUU 3'PFS CGC (mixed)
RNA 1: B1 RNA 1
RNA 2: B1 RNA 2 with A54C
B33: target 1 insG 3' of 20,insA 3' of 10 (mixed)
RNA 1: B1 RNA 1
RNA 2: GGGAAUGGAUCCACAUCUACGAAUUCGUACCAGUAGAGAGGUUAAUCCGCUCACCGAGAUCGGAAGAGCACACGU
B34: target 1 MT 5'PFS GUU 3'PFS CGG (mixed)
RNA 1: B1 RNA 1
RNA 2: B1 RNA 2 with A54G
B35: target 1 MT 5'PFS GAC 3'PFS UAG (mixed)
RNA 1: B1 RNA 1
RNA 2: B1 RNA 2 with U28A, U29C, C52U, G53A, A54G
B36: target 1 MT 5'PFS CAU 3'PFS CUC (mixed)
RNA 1: B1 RNA 1
RNA 2: B1 RNA 2 with G27C, U28A, G53U, A54C
B37: target 1 C7A,U11G (mixed)
RNA 1: B1 RNA 1
RNA 2: B1 RNA 2 with U29A, U41G, C45A, G53C, A54G
B38: target 1 MT 5'PFS GCG 3'PFS CCG (mixed)
RNA 1: B1 RNA 1
RNA 2: B1 RNA 2 with U28C, U29G, G53C, A54G
B39: target 1 MT 5'PFS CCG 3'PFS UCG (mixed)
RNA 1: B1 RNA 1
RNA 2: B1 RNA 2 with G27C, U28C, U29G, C52U, G53C, A54G
B40: target 1 MT 5'PFS GUC 3'PFS AGU (mixed)
RNA 1: B1 RNA 1
RNA 2: B1 RNA 2 with U29C, C52A, A54U

molecular target: T1, EsCas13d, nuclease-dead; assay: crRNA (strand 1, pre-loaded); Mg2+; 40 mM Tris-HCl pH 7.5, 150 mM NaCl, 6 mM MgCl2, 1 mM DTT, 0.1% Tween-20, 0.2 mg/ml BSA; 25 C; 10 min per concentration, then washed; conditions: tags: His6-TwinStrep-SUMO cleaved; N-terminal SNAP kept (SNAP-Surface 488); label: 3' end held by stalled T7 RNA polymerase

Binder | Kd [µM]
B1 | 0.0197 ± 0.0042
B2 | 0.00925 ± 0.0011
B3 | 0.0155 ± 0.004
B4 | 0.0195 ± 0.00385
B5 | 0.0275 ± 0.006
B6 | 0.00811 ± 0.00052
B7 | 0.0755 ± 0.0305
B8 | 0.019 ± 0.008
B9 | 0.00985 ± 0.00115
B10 | 0.0159 ± 0.0047
B11 | 0.0175 ± 0.0045
B12 | 0.0144 ± 0.00355
B13 | 0.0123 ± 0.0018
B14 | 0.0056 ± 0.00235
B15 | 0.0138 ± 0.0007
B16 | 0.046 ± 0.009
B17 | 0.0091 ± 0.00175
B18 | 0.035 ± 0.007
B19 | 0.0185 ± 0.0065
B20 | 0.0143 ± 0.0013

Binder | Kd [µM]
B21 | 0.019 ± 0.006
B22 | 0.0235 ± 0.00575
B23 | 0.091 ± 0.037
B24 | 0.0215 ± 0.007
B25 | 0.0455 ± 0.018
B26 | 0.0149 ± 0.0026
B27 | 0.016 ± 0.004
B28 | ~0.047
B29 | 0.00505 ± 0.00135
B30 | 0.039 ± 0.006
B31 | ~0.11
B32 | 0.0198 ± 0.0045
B33 | 0.042 ± 0.008
B34 | 0.067 ± 0.009
B35 | 0.0275 ± 0.011
B36 | ~0.09
B37 | 0.0134 ± 0.0006
B38 | 0.0124 ± 0.0034
B39 | 0.0034 ± 0.0013
B40 | 0.0206 ± 0.0027
